The target in experiment [1] is pheromone-biosynthesis-activating neuropeptide receptor (fire ant PBAN-R) (fire ant (Solenopsis invicta)). Kind of experiment: phage display selection on Sf9 cells expressing PBAN-R, 3-4 rounds; count of sequenced clones.
For experiment [2] the target is unchanged. The experiment is described as above. The source holds these as a separate data set.

Where two headings read alike, the source gives them in different places.

The values below come from patent US20180086790A1.

Turning to ERVGTHF (SEQ ID NO: 20) (peptide), the Abundance of phage clones in experiment [1] was 1 clones.

In experiment [1], ERVGTHY (SEQ ID NO: 24) (peptide) gave an Abundance of phage clones of 1 clones.

For the molecule HSRVSGT (SEQ ID NO: 21) (peptide), the Abundance of phage clones in experiment [1] was 1 clones. The molecule IHIGSHF (SEQ ID NO: 16) (peptide) gave an Abundance of phage clones in experiment [1] of 1 clones.

As to IHXGTHF (SEQ ID NO: 22) (peptide), the Abundance of phage clones in experiment [1] was determined as 1 clones. For IKIGSHY (SEQ ID NO: 26) (peptide), the Abundance of phage clones in experiment [1] stood at 1 clones. In experiment [1], IKVGPHY (SEQ ID NO: 25) (peptide) came in with an Abundance of phage clones of 1 clones.

In experiment [1], IQIGTHF (SEQ ID NO: 18) (peptide) registered an Abundance of phage clones of 1 clones. The molecule LPMTKHV (SEQ ID NO: 30) (peptide) gave an Abundance of phage clones in experiment [1] of 1 clones. On the same count and under the same terms, the same measure for LPWQIHN (SEQ ID NO: 29) (peptide): 1 clones.

NTGGSMA (SEQ ID NO: 35) (peptide) came in with an Abundance of phage clones in experiment [1] of 1 clones.

As to NTGSPYE (SEQ ID NO: 36) (peptide), in experiment [1], the Abundance of phage clones amounted to 1 clones. Still for that read-out and setting: the same measure for QQTKNYY (SEQ ID NO: 32) (peptide): 1 clones; for QRIGLHY (SEQ ID NO: 27) (peptide): 1 clones. Still for that read-out and setting: the same measure for QSIGTHF (SEQ ID NO: 19) (peptide): 1 clones. On the same count and under the same terms, the same measure for SQLPWYS (SEQ ID NO: 34) (peptide): 1 clones; for TNANHYF (SEQ ID NO: 31) (peptide): 1 clones. For TNGDSAR (SEQ ID NO: 33) (peptide), in experiment [1], the Abundance of phage clones amounted to 1 clones. Same read-out and setting: the figure for TQIGTHF (SEQ ID NO: 17) (peptide) is 1 clones; for TXVGSHF (SEQ ID NO: 15) (peptide) it is 1 clones. Same read-out and setting: the same measure for VSRTSHL (SEQ ID NO: 28) (peptide): 1 clones. On the same count and under the same terms, the same measure for YSSPSHF (SEQ ID NO: 23) (peptide): 1 clones. In the case of CVKQGTHFC (loop-constrained by a pair of flanking cysteine (C) residues) [… (SEQ ID NO: 9)], the Abundance of phage clones in experiment [2] stood at 2 clones. Same read-out and setting: the figure for CMARYMSAC (Cysteine-Cysteine S-S bond at the N- and C-terminal ends) [… (SEQ ID NO: 11)] is 2 clones.

On to CIVQGSHFC (loop-constrained by a pair of flanking cysteine (C) residues) [… (SEQ ID NO: 7)], for which the Abundance of phage clones in experiment [2] was found to be 2 clones. Still for that read-out and setting: the same measure for CLKIGSHFC (Cysteine-Cysteine S-S bond at the N- and C-terminal ends) [… (SEQ ID NO: 3)]: 7 clones. Same read-out and setting: the figure for CERVGSHFC (loop-constrained by a pair of flanking cysteine (C) residues) [… (SEQ ID NO: 5)] is 3 clones; for CIVQGSHFC (loop-constrained by a pair of flanking cysteine (C) residues) [… (SEQ ID NO: 10)] it is 2 clones.

In turn, CVKLGSHFC (Cysteine-Cysteine S-S bond at the N- and C-terminal ends) [… (SEQ ID NO: 6)] gave an Abundance of phage clones in experiment [2] of 2 clones. As to CRGATPMSC (Cysteine-Cysteine S-S bond at the N- and C-terminal ends) [… (SEQ ID NO: 12)], in experiment [2], the Abundance of phage clones was 2 clones.

Take CIQQGSHFC (loop-constrained by a pair of flanking cysteine (C) residues) [… (SEQ ID NO: 4)]: in experiment [2], the Abundance of phage clones was found to be 3 clones. Still for that read-out and setting: the figure for CQSINGHFC (loop-constrained by a pair of flanking cysteine (C) residues) [… (SEQ ID NO: 8)] is 2 clones.
